Assay results as given in article doi:10.1101/2025.03.01.640934 (bioRxiv, 2025).

Target: the molecule itself
Assay: native MS

B1: recombinant DK fragment (DUF3669 and KRAB domains; residues 1-191) of ZNF746 (domain or fragment)
chain: not shown
stoichiometry N: 3
